According to article PMC7611124:

B1: C-oligo NF-kB (consensus cold competitor) (dsDNA)
DNA 1: CCGCTGGGACTTTCCAGGA
DNA 2: TCCTGGAAAGTCCCAGCGG
B2: Probe C (rs28416813 C allele, IFNL3 5'UTR) (dsDNA)
DNA 1: CCCCTGCCCTCAGTGGGCAGCCTCTGCATTCCCTCAGCTCCCTTTCTCTCTGTGA
DNA 2: TCACAGAGAGAAAGGGAGCTGAGGGAATGCAGAGGCTGCCCACTGAGGGCAGGGG
modifications: BrdU (written T) at positions 5 and 34 of strand 1

Assays:
NF-kB p50 [1] = target: T1, NF-kB p50 (UniProt P19838 1-433); assay: competition
NF-kB p50 [2] = target: T1, NF-kB p50; assay: EMSA

T1 sequence (P19838 1-433): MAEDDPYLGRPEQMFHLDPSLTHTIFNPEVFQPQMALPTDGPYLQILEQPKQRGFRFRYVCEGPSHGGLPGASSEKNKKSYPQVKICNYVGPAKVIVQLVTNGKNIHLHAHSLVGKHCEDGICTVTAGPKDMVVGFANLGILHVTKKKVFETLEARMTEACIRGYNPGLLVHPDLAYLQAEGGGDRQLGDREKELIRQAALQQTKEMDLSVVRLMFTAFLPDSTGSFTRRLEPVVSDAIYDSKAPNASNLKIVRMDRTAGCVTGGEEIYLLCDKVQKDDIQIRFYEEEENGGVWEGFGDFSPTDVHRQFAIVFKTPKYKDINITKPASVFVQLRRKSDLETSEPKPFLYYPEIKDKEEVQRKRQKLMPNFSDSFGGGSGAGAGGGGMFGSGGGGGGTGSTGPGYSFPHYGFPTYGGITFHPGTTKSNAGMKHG

Binder | binding result (NF-kB p50 [1]) | binding result (NF-kB p50 [2])
B1 | binds | –
B2 | – | binds
